B1: TPR t1 (parent)
chain: GACCAAUCUGCCCUCAGAGCUCGAGAACAUCUUCGGAUGCAGAGGAGGCAGGCUUCGGUGGCGCGAUAGCGCCAACGUCCUCAACCUCCAAUGCAUCCCACCACAUGAUGAUGCCUGAAGAGCCUUGGUUUUUUG

Variants of: B1
Experiment: polymerase ribozyme fitness, log enrichment relative to wild type (log ratio); higher = more active; in vitro selection for triplet polymerase activity
Outline: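 Each subunit of a heterodimeric triplet polymerase ribozyme was represented by a PCR-built, transcribed mutant library that underwent triplicate single-round in vitro selection with frozen incubation at −7 °C. Extended constructs were recovered by gel excision, streptavidin-bead capture and RT-PCR, and Illumina sequencing of input and output libraries kept genotypes with ≥10 input reads and ≥1 read per output. Fitness is the logarithm of genotype enrichment relative to wild-type enrichment, from inverse-variance-weighted replicate averages, with a logarithm base of 2.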

Point of comparison: A6U U54C, “polymerase ribozyme fitness (log ratio)” value 0.558. Against it:
- U7G C97G — lower, -3.9
- U7G C102A — lower, -0.8
- C8A G71A C104A — lower, -2.19
- U7C C56G U78C A84U G113C — lower, -2.73
- U7A A41G U92A — lower, -1.89
- C8A G35A C89U G117C — lower, -6.27
- U7G U59A U130G — lower, -0.396
- C8A A24U G61U C115U G117A — lower, -7.42
- U7G A46U G63C C102A C104A A111U G128C — lower, -7.59
- A6U C80A U87A — lower, -2.6
- U7A U32C U55C G60C U129A — lower, -1.82
- U7A C8G A43C C53A G77A — lower, -2.07
- U7G A29C C72A C82A G120C — lower, -0.586
- C8A A18G U109C C115A — lower, -5.42
- U7C C13A C28G G69U A100U — lower, -2.4
- U7G C12A A43U C73A — lower, -1.44
- U7C G48U A50G G61A C89U — lower, -1.71
- C8A C76U U87A U112A A121C U133G — higher, 0.984
- U7G G10U U78C C101A G122A — lower, -1.81
- U7G G45A U59G U129A — lower, -1.45
- U7G C12G G17U U21G G69U C86U C124A — lower, -6.15
- C8A C12G G61C C123A — lower, -0.379
- U7G A95G — within 0.2 log units, 0.461
- C8A A37C C101G — lower, -1.22
- A6U G69A — lower, -2.02
- A6U G117A — lower, -0.258
- C8A C20A U126A — lower, -3.84
- U7C C34G G69C G120A — lower, -6.41
- A6U U30C G60A G122A — lower, -5.6
- U7C C8U C34G — lower, -6.08
- U7A C53U — lower, -0.0186
- U7C A29G G63U U81A U132C — lower, -3.82
- U7G C53U C62G C101G C102A G120U G127A — lower, -7.14
- U7A C13U A27G G36U A50C — lower, -2.73
- U7G G65U G120A — lower, -4.13
- U7G A83U U87A A95U C124A — within 0.2 log units, 0.494
- U7A A18U G71A A119U G122U G135U — lower, -5.8
- U7G U21A U55G A121C — higher, 1.32
- C8A G60A — lower, -0.104
- U7A C40U C85G C104U — lower, -2.31
- C8A U9G A26G G44A G45U G63U C115A — lower, -3.15
- A6U G60C G120U — lower, 0.248
- U7A U9C C12U G57C G63U — lower, -0.748
- A6U U106A — lower, -0.188
- U7G U129A — lower, -0.778
- U7C G58C A91C — lower, -1.02
- A6U G10U C15G C28A A100C C123U — lower, -5.42
- U7A C62G C86U — lower, -1.24
- U7A U9A C11A G42C G47U G61A A118U — lower, -4.21
- A6U G45U G52C G69C C72U G122A — lower, -3.45
- U7A C12A C28G G58A U87G G120U — lower, -1.72
- U7G U14G C34G — lower, -5.56
- C8A C80G C82G C88A C114U — lower, -6.78
- C8A C34A C98G U126G — lower, -4.07
- A6U C101A — lower, -0.91
- A6U C124A — higher, 1.49
- C8A A18U G45C U109A — lower, -5.8
- A6U G42U — lower, -1.17
- C8A C11U G17C — lower, -2.13
- U7C G71A G127U U133G — lower, -1.83
- U7G A29U C56A C76U — lower, -1.78
- C8A C72G C101G — lower, -2.08
- A6U G60U C115A G117U — lower, -4.41
- A6U G44C C72G G110A C115A — lower, -4.85
- U7A C8A C11G G47U G57U C62U C85A — lower, -1.82
- C8A G63C U78C U81A C101A U109G — lower, -5.76
- U7G C20A G39A C49G G61C A121G — lower, -3.89
- A6U G57A G58C A103C A105C — lower, -6.92
- C8A U9G C94G — lower, -0.653
- U7G C79U C124G — higher, 2.41
- C8A C72A U81G G120U — lower, -0.73
- U7G A16U A43U C49U C70A C89A U116G — lower, -4.88
- U7A C31U G60A — lower, -4.77
- A6U C123G — higher, 1.29
- C8A A29G C115U U126G — lower, -2.36
- A6U G63U — lower, -1.06
- C8A C72U — lower, 0.071
- C8A C20A C79A — lower, -3.7
- C8A C28G G61A — lower, -2.22
- A6U G44U C53U G77U G110A — lower, -3.2
- U7G U30A C101U U109A C124A — lower, -3.51
- A6U U87C U96G G120A G122C — within 0.2 log units, 0.592

From the RNAGym collection of RNA variant scans (doi:10.1073/pnas.2313332121)
